Test results published in publication PMC5180179, “Bacteriophage T5 gene D10 encodes a branch-migration protein”.

Key:
[1] = biological target: T1, D10 helicase (wild type) (Bacteriophage T5, UniProt P11107 1-450); assay: EMSA with poly d(AT) competitor; no ATP/Mg2+; affinity near identical to Y20; bound but not unwound; EMSA: 0.1 nM DNA, 20 mM HEPES-NaOH pH 7.5, 135 mM NaCl, 0.1% NP40 alternative, 0.1 mg/ml BSA, 2 mM DTT, 1 mM EDTA, 10% glycerol, 22 °C, 20 min; footprinting the same with 10 nM DNA and no glycerol; settings: protein: recombinant; tags: GST tag removed with thrombin; label: 5'-32P; three-way Y-junction, three 20 bp arms
T1 sequence: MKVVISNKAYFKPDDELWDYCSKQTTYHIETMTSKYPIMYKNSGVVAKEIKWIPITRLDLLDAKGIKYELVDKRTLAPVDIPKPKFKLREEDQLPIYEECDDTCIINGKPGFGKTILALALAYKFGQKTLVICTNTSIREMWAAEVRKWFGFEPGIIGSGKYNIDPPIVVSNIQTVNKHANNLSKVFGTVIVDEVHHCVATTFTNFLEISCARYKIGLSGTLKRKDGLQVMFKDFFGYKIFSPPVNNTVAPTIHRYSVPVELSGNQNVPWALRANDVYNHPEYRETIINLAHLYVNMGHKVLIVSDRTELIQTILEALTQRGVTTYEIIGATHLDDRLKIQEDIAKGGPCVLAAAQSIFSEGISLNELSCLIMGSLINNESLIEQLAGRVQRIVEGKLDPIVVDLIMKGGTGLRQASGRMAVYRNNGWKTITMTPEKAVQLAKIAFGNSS

[2] = biological target: T1, D10 helicase (wild type); assay: EMSA with nonspecific competitor DNA; no ATP/Mg2+, 1 mM EDTA; EMSA: 0.1 nM DNA, 20 mM HEPES-NaOH pH 7.5, 135 mM NaCl, 0.1% NP40 alternative, 0.1 mg/ml BSA, 2 mM DTT, 1 mM EDTA, 10% glycerol, 22 °C, 20 min; footprinting the same with 10 nM DNA and no glycerol; settings: protein: recombinant; tags: GST tag removed with thrombin; label: 5'-32P; three-way Y-junction, three 20 bp arms, nick in strand A at the junction
[3] = biological target: T1, D10 helicase (wild type); assay: EMSA with nonspecific competitor DNA; affinity similar to Y20; EMSA: 0.1 nM DNA, 20 mM HEPES-NaOH pH 7.5, 135 mM NaCl, 0.1% NP40 alternative, 0.1 mg/ml BSA, 2 mM DTT, 1 mM EDTA, 10% glycerol, 22 °C, 20 min; footprinting the same with 10 nM DNA and no glycerol; settings: protein: recombinant, tags: GST tag removed with thrombin, label: 5'-32P, three-way Y-junction, three 20 bp arms
[4] = biological target: T1, D10 helicase (wild type); assay: EMSA with poly d(AT) competitor; no ATP/Mg2+; 0.1 nM DNA, 0.4 nM D10 (all substrate bound); EMSA: 0.1 nM DNA, 20 mM HEPES-NaOH pH 7.5, 135 mM NaCl, 0.1% NP40 alternative, 0.1 mg/ml BSA, 2 mM DTT, 1 mM EDTA, 10% glycerol, 22 °C, 20 min; footprinting the same with 10 nM DNA and no glycerol; settings: protein: recombinant; tags: GST tag removed with thrombin; label: 5'-32P on one strand; three-way Y-junction, three 20 bp arms
[5] = biological target: T1, D10 helicase (wild type); assay: EMSA with poly d(AT) competitor; no ATP/Mg2+; affinity near identical to Y20; EMSA: 0.1 nM DNA, 20 mM HEPES-NaOH pH 7.5, 135 mM NaCl, 0.1% NP40 alternative, 0.1 mg/ml BSA, 2 mM DTT, 1 mM EDTA, 10% glycerol, 22 °C, 20 min; footprinting the same with 10 nM DNA and no glycerol; settings: protein: recombinant; tags: GST tag removed with thrombin; label: 5'-32P; three-way Y-junction, three 20 bp arms
[6] = biological target: T2, D10 R389N (Bacteriophage T5, UniProt P11107 1-450, R389N); assay: EMSA; binding equivalent to wild type; not unwound; EMSA: 0.1 nM DNA, 20 mM HEPES-NaOH pH 7.5, 135 mM NaCl, 0.1% NP40 alternative, 0.1 mg/ml BSA, 2 mM DTT, 1 mM EDTA, 10% glycerol, 22 °C, 20 min; footprinting the same with 10 nM DNA and no glycerol; settings: protein: recombinant; tags: GST tag removed with thrombin; label: 5'-32P; four-way non-homologous Holliday junction, four 20 bp arms
T2 sequence: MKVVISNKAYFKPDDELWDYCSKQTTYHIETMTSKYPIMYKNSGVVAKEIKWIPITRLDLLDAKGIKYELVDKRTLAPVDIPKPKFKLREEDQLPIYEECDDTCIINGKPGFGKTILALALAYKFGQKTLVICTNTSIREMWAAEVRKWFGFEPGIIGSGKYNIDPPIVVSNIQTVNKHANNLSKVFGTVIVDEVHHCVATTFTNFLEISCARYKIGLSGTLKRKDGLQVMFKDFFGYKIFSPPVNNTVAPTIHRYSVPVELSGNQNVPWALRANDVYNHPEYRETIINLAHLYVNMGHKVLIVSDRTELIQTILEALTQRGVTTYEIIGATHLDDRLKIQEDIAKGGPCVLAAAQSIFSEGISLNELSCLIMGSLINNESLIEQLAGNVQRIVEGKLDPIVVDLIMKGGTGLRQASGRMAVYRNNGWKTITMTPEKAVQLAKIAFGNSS

[7] = biological target: T1, D10 helicase (wild type); assay: EMSA; EMSA: 0.1 nM DNA, 20 mM HEPES-NaOH pH 7.5, 135 mM NaCl, 0.1% NP40 alternative, 0.1 mg/ml BSA, 2 mM DTT, 1 mM EDTA, 10% glycerol, 22 °C, 20 min; footprinting the same with 10 nM DNA and no glycerol; settings: protein: recombinant; tags: GST tag removed with thrombin; label: 5'-32P; four-way non-homologous Holliday junction, four 20 bp arms

B1: Y20'' (dsDNA)
DNA 1: TTCGAAACGTGCGGAATCATACGGGCGGCTTAACGGTGAT
DNA 2: ATCACCGTTAAGCCGCCCGTCGACCAAGAGCTCGGTACCC
DNA 3: GGGTACCGAGCTCTTGGTCGATGATTCCGCACGTTTCGAA
- binding result [1]: binds

B2: Y20-3 (oligo A nicked) (dsDNA)
DNA 1: TTCGAAACGTGCGCGCCCAT
DNA 2: ACGCCAAGCTTAACGGTGAT
DNA 3: ATCACCGTTAAGCTTGGCGTCGAATTCGAGCTCGGTACCC
DNA 4: GGGTACCGAGCTCGAATTCGATGGGCGCGCACGTTTCGAA
- binding signal [2]: ~2 fold lower affinity than Y20

B3: Y20-1 (oligo C nicked) (dsDNA)
DNA 1: TTCGAAACGTGCGCGCCCATACGCCAAGCTTAACGGTGAT
DNA 2: ATCACCGTTAAGCTTGGCGTCGAATTCGAGCTCGGTACCC
DNA 3: GGGTACCGAGCTCGAATTCG
DNA 4: ATGGGCGCGCACGTTTCGAA
- binding result ([3]; nick in strand C at the junction): binds

B4: Y20 (dsDNA)
DNA 1: TTCGAAACGTGCGCGCCCATACGCCAAGCTTAACGGTGAT
DNA 2: ATCACCGTTAAGCTTGGCGTCGAATTCGAGCTCGGTACCC
DNA 3: GGGTACCGAGCTCGAATTCGATGGGCGCGCACGTTTCGAA
- binding result [4]: binds

B5: Y20' (dsDNA)
DNA 1: TTCGAAACGTGCGCGCCTCGATGCCAAGCTTAACGGTGAT
DNA 2: ATCACCGTTAAGCTTGGCATACGATTCGAGCTCGGTACCC
DNA 3: GGGTACCGAGCTCGAATCGTCGAGGCGCGCACGTTTCGAA
- binding result [5]: binds

B6: NHJ20 (dsDNA)
DNA 1: TTCGAAACGTGCGCGCCCATACGCCAAGCTTAACGGTGAT
DNA 2: ATCACCGTTAAGCTTGGCGTCGAATTCGAGCTCGGTACCC
DNA 3: GGGTACCGAGCTCGAATTCGTGGGCGGTGCCCAACGCATA
DNA 4: TATGCGTTGGGCACCGCCCAATGGGCGCGCACGTTTCGAA
- binding result [6]: binds
- binding result [7]: binds

B7: Y20-2 (oligo B nicked) (dsDNA)
DNA 1: TTCGAAACGTGCGCGCCCATACGCCAAGCTTAACGGTGAT
DNA 2: GGGTACCGAGCTCGAATTCGATGGGCGCGCACGTTTCGAA
DNA 3: ATCACCGTTAAGCTTGGCGT
DNA 4: CGAATTCGAGCTCGGTACCC
- binding result ([3]; nick in strand B at the junction): binds
